These results are taken from publication PMC12371696.

In experiment [1] the target is Trastuzumab with E5 Ecoil peptides fused at the C-termini of heavy and light chains (TZM-E5). The experiment is described as follows: SEC-MALS; UPLC-SEC-MALS; TZM-Ex mixed with Kx-mRFP at 1:4 molar ratio (2 nmol + 8 nmol), 45 min at room temperature; BEH200 column, 0.2 M potassium phosphate, 0.2 M potassium chloride, 0.02% Tween-20, pH 7.0, 30 °C. A general note: In gel filtration, larger molecules generally elute earlier.

Experiment [2] shares this target.

Ends that are not written are not given here.

With “K5 Kcoil peptide fused to the N-terminus of monomeric red fluorescent protein (K5-mRFP) (designed binder)”, the stoichiometry N (K5-mRFP per TZM-E5) in experiment [1] is 4. With KVSALKEKVSALKEKVSALKEKVSALKEKVSALKEGGC(CF750 maleimide) [K5 Kcoil peptide (KVSALKE)5-GGC conjugated to CF750 maleimide near-infrared dye (K5-CF750)], in experiment [2], the tumor fluorescence (total radiant efficiency, area under the curve 3-336 h) after intravenous injection of the preformed TZM-E5/K5-CF750 complex in the SKOV3 xenograft mouse model ([p/s] × h /[uW/cm^2]) is 4.4e+13.
